The nature of the data set: protein stability index of a GFP-peptide fusion (GPS, HEK-293T) (PSI 1-6); higher = more stable. Particulars: c terminus: a fixed tail appended.

± gives the standard deviation.
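Also: 24-mer peptide tiles fused after GFP, lentivirally expressed, FACS-sorted into six equal bins by GFP/DsRed ratio, decoded by Illumina sequencing, PSI is the read-weighted mean bin number.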

Take FQLPERGSRLCLYEDGTELTEDYF [DFFB]: the protein stability index worked out at 3.71 ± 0.44 (treatment: DMSO) and 3.7 ± 0.47 (treatment: MLN4924 1 uM, 8 h).

Turning to FREDGAYEFNPDFLEEAHEWNQKR [N4BP2L1], the protein stability index stood at 4.71 ± 0.16 (treatment: DMSO) and 4.53 ± 0.26 (treatment: MLN4924 1 uM, 8 h). FRHLRLQYIISDLASARIIEQDAV [GMCL1]: the protein stability index was 2.6 ± 0.73 (treatment: DMSO) and 2.44 ± 0.48 (treatment: MLN4924 1 uM, 8 h). In the same order, the values of FSDPSQSDPETKDFWLNMAALTEA [FCHO1] are 3.4 ± 0.47 and 3.79 ± 0.37. Regarding FSEQVFKVASSDLVNMGISVVSYT [FLOT1], the protein stability index was 2.66 ± 0.72 (treatment: DMSO) and 2.39 ± 0.44 (treatment: MLN4924 1 uM, 8 h). In the same order, the values of FSLVGKRAISTSVCVRAHESVVKS [COX4I1] are 2.75 ± 0.14 and 2.94 ± 0.3.

Consider FVDSIRRQFEFSVDSFQIILDSLL [TENT5C], for which the protein stability index (treatment: DMSO) turned out to be 2.33 ± 0.37 and the protein stability index (treatment: MLN4924 1 uM, 8 h) is 2.31 ± 0.14. Sequence FVGYNPYSHLAYNNYRLGGNPSTN [SMARCE1] displayed a protein stability index (treatment: DMSO) of 2.87 ± 0.21 and a protein stability index (treatment: MLN4924 1 uM, 8 h) of 2.54 ± 0.2. As to FVQRSGNYFVTMFDDYSATLPLTL [SLC6A17], the protein stability index is 2.65 ± 0.18 (treatment: DMSO) and 2.65 ± 0.55 (treatment: MLN4924 1 uM, 8 h).

FVRGDHRDNSPFDGPGGNLAHAFQ [MMP1]: the protein stability index (treatment: DMSO) turned out to be 2.34 ± 0.6 and the protein stability index (treatment: MLN4924 1 uM, 8 h) was 3.06 ± 0.29. Sequence FWPAKVMQKEDNQVDVRFFGHHHQ [ZMYND11] returned a protein stability index (treatment: DMSO) of 2.71 ± 0.52 and a protein stability index (treatment: MLN4924 1 uM, 8 h) of 2.47 ± 0.18. As to FYMFAWTHVTLLITVTQSHLVIQN [CDS1], the protein stability index was found to be 3.01 ± 0.38 (treatment: DMSO) and 3 ± 0.3 (treatment: MLN4924 1 uM, 8 h).

GARARGVAMLGVFLVSAVAHEYIF [SOAT2] yielded a protein stability index (treatment: MLN4924 1 uM, 8 h) of 3.591 ± 0.02. With GARPPPTPPASPPPSVLISKNEVG [KMT2E], the protein stability index runs as follows: (treatment: DMSO) 4.91 ± 0.12; (treatment: MLN4924 1 uM, 8 h) 5.08 ± 0.18.

In the case of GATCMFVASKMKETIPLTAEKLCI [CCND1], the protein stability index worked out at 2.34 ± 0.34 (treatment: DMSO) and 1.99 ± 0.41 (treatment: MLN4924 1 uM, 8 h).

For GCFTLPRSEPIRPIDPAAWVSHTA [DVL3], the protein stability index stood at 2.81 ± 0.25 (treatment: DMSO) and 3 ± 0.42 (treatment: MLN4924 1 uM, 8 h).

Turning to GCSAVSEPASESVVGALPAEHQFS [TRAF3IP2], the protein stability index turned out to be 4.38 ± 0.34 (treatment: DMSO) and 4.6 ± 0.27 (treatment: MLN4924 1 uM, 8 h). With GDEISIKKKNTNKQEMGTYLRFIV [ZMYND11], the protein stability index by setting is: (treatment: DMSO) 2.12 ± 0.087; (treatment: MLN4924 1 uM, 8 h) 2.12 ± 0.24. In the same order, the values of GDFDFDEVKFPNASDMFRRLRDAG [MYORG] are 3.98 ± 0.16 and 3.98 ± 0.2. On to GEDSSTSSSTPLEDEEPQEPNRLE [RTN2], for which the protein stability index is, setting by setting: (treatment: DMSO) 5.56 ± 0.26; (treatment: MLN4924 1 uM, 8 h) 5.57 ± 0.25.

As to GELGSIGDHERAIDFSPYLEPLGA [CEBPB], the protein stability index was found to be 4.21 ± 0.6 (treatment: DMSO) and 4.18 ± 0.32 (treatment: MLN4924 1 uM, 8 h). In turn, GEQPQFWSKTQVLDWISYQVEKNK [ELF3] gave a protein stability index (treatment: DMSO) of 3.02 ± 0.13 and a protein stability index (treatment: MLN4924 1 uM, 8 h) of 3.29 ± 0.33. For the sequence GETGSGDQAGGEGKHITVFKTYIS [MYOZ1], the protein stability index worked out at 3.97 ± 0.14 (treatment: DMSO) and 4.06 ± 0.15 (treatment: MLN4924 1 uM, 8 h).

In the case of GFFSSAFQARLSGNNLHNASIPEH [POMT2], the protein stability index is 2.81 ± 0.44 (treatment: DMSO) and 3.07 ± 0.35 (treatment: MLN4924 1 uM, 8 h). GGCYFGPDVTQQLLQKYNMQFLIR [PPEF2] yielded a protein stability index (treatment: DMSO) of 1.92 ± 0.29 and a protein stability index (treatment: MLN4924 1 uM, 8 h) of 2.2 ± 0.37. Turning to GGGGTQRLPRAIGMSLAKELIFSA [AUH], the protein stability index by setting is: (treatment: DMSO) 2.54 ± 0.21; (treatment: MLN4924 1 uM, 8 h) 2.69 ± 0.58. Regarding GGNVECIKLLQSSGADFHKKDKCG [ANKRD44], the protein stability index was determined as 4.48 ± 0.17 (treatment: DMSO) and 4.38 ± 0.1 (treatment: MLN4924 1 uM, 8 h). As to GGSGGGAGGAGGGVTEEQEGFADG [JUNB], the protein stability index runs as follows: (treatment: DMSO) 5.5 ± 0.087; (treatment: MLN4924 1 uM, 8 h) 5.42 ± 0.43.

For GHHAEKLPAGAGAPKAGLEEAPAV [TNFSF13B], the protein stability index was determined as 5.22 ± 0.3 (treatment: DMSO) and 5.27 ± 0.2 (treatment: MLN4924 1 uM, 8 h). As for GHSFCRPCLCLSWEEAQSPANCPA [TRIM43], the protein stability index (treatment: DMSO) came to 3.47 ± 0.34 and the protein stability index (treatment: MLN4924 1 uM, 8 h) is 3.66 ± 0.29. In the same order, the values of GIVGGFTQMIREGGARSLWRGNGI [SLC25A25] are 2.22 ± 0.093 and 2.27 ± 0.2.

In turn, GKKFLLLSINRYERKKNLTLALEA [ALG2] came in with a protein stability index (treatment: DMSO) of 2.35 ± 0.88 and a protein stability index (treatment: MLN4924 1 uM, 8 h) of 2.6 ± 0.39. In the case of GKKYNTMLGYKRHLALHAASSGDL [PLAGL1], the protein stability index stood at 3.15 ± 0.12 (treatment: DMSO) and 3.28 ± 0.27 (treatment: MLN4924 1 uM, 8 h). Regarding GKLVLSSLPKRLCLVCGDVASGYH [ESRRA], the protein stability index (treatment: DMSO) came out at 2.38 ± 0.45 and the protein stability index (treatment: MLN4924 1 uM, 8 h) is 1.97 ± 0.33.

In the case of GLDPCLLEDELDKSVQGTGLAFIA [SLC6A17], the protein stability index runs as follows: (treatment: DMSO) 3.28 ± 0.31; (treatment: MLN4924 1 uM, 8 h) 3.28 ± 0.44.

GLPGPEAARSGDAAANKLFHYIPG [PLEKHN1]: the protein stability index runs as follows: (treatment: DMSO) 3.93 ± 0.38; (treatment: MLN4924 1 uM, 8 h) 4.15 ± 0.42. In the same order, the values of GLPGSFIKEVQKGGPADLAGLEDE [PDZK1] are 5.59 ± 0.14 and 5.37 ± 0.25.

The values above are taken from the supplement of paper PMC10567573.
